Substitutions are numbered along the chain they refer to.
B1: H4H6671P (antibody, human IgG4, V domains shown)
VH: EVQLVESGGGLVKPGGSLRLSCAASGFTFSNAWMSWVRQAPGKGLEWVGRIKSRSDGGTTDYAAPVKGRFTISRDDSKNTLYLQMNSLKTEDTALYYCSPPGSHYGYWGQGTLVTVSS
VL: not shown
B2: H4H6669P (antibody, human IgG4, V domains shown)
VH: B1 VH with S35T, S53R, R54K, S55N, T60I, K89R, L95V, S99I, P101S, H104Y
VL: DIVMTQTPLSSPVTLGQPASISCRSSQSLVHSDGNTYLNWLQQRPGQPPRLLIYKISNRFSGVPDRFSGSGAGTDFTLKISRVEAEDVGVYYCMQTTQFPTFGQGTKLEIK
B3: H4H6680P (antibody, human IgG4, V domains shown)
VH: EVQLVESGGGLVKPGGSLRLSCAVSGFTFSNAWMTWVRQTPGKGLEWVGRIKRKNEGGTIDYAAPVKGRFTISRDDSKNTLYLQMNSLKTEDTAVYYCTPSGSYYGYWGQGTLVTVSS
VL: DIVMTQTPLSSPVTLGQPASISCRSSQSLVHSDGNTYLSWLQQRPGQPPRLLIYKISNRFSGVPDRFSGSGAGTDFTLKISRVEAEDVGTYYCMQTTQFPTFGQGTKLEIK
B4: H4H6698P (antibody, human IgG4, V domains shown)
VH: EVQLVESGGGLVKPGGSLRLSCAASGFTFSNVWMTWVRQAPGKGLEWVGRIKTKTDGGTTDYAAPVKGRFTISRDDSKNSLYLQMSSLKTEDTAVYYCTTGHTSYWGQGTLVTVSS
VL: not shown
B5: H4H6701P (antibody, human IgG4, V domains shown)
VH: B4 VH with V32A, I51T, D56E, S80T, S86N, T103I, S104F
VL: not shown

Legend:
human PROKR1 [1] = target: T1, human PROKR1 (human, UniProt Q8TCW9 1-393); test: cell-based or functional assay
human PROKR2 [2] = target: T2, human PROKR2 (human, UniProt Q8NFJ6 1-384); test: flow cytometry, HEK293 cells expressing the target
T2 construct: Expressed on engineered HEK293 or CHO cells; also called hPROKR2; prokineticin receptor 2
Procedure: (§1) Anti-PROKR antibodies generated in accordance with Example 1 were tested for the ability to bind to human, mouse, and monkey PROKR1 and PROKR2. For these experiments, HEK293 cells were engineered to express: human PROKR1; human PROKR2; mouse PROKR1; mouse PROKR2; cynomolgus monkey PROKR1; or cynomolgus monkey PROKR2. Binding of anti-human PROKR antibodies to the PROKR-expressing cell lines was measured by flow cytometry.
(§2) Adherent cells were collected using 1 mM EDTA in PBS, then washed, and re-suspended in cold PBS containing 5% FBS. For the binding experiments, each anti-PROKR antibody was added to 250,000 cells in 500 μl of PBS with 5% FBS (final antibody concentration of 13 nM). After incubation for 20 minutes at room temperature, the cells were washed with PBS containing 5% FBS. A secondary antibody, recognizing either human (Jackson Immuno Research, #115-135-205) or mouse Fc (BD Pharmigen, #550826) and conjugated to allophycyanin, was then added to the cell mixture at a final concentration of 13.3 nM. After incubating for 20 minutes on ice, the cells were washed and resuspended in PBS containing 5% FBS and then sorted and analyzed on a FACSCalibur (BD Biosciences) flow cytometer to determine relative binding by the candidate antibodies. The cell samples containing secondary antibody alone were used as negative control for FACS gating. Histograms of cells stained with anti-human PROKR antibodies were compared with cells stained with secondary alone. […] ND=not determined.

human PROKR1 (1-62)-hFc = target: T3, human PROKR1 (1-62)-hFc (human); test: SPR (Biacore 4000), 25 C, antibody captured, antigen injected at 25 and 100 nM
T3 construct: also called soluble human PROKR1 (N-terminal portion)
Procedure: (§3) Kinetic experiments were carried out using HBS-EP (10 mM HEPES, 150 mM NaCl, 3 mM EDTA, 0.05% Surfactant P20, pH 7.4) as both the running buffer and the sample buffer. Antigen-antibody association rates were measured by injecting 2 concentrations (25 and 100 nM) of both human PROKR1 (1-62)-hFc (SEQ ID NO:179) and human PROKR2(1-53)-hFc (SEQ ID NO:180) over the captured antibody surface. Antibody-antigen association was monitored for 90 seconds while dissociation was monitored for 360 seconds. Kinetic on-rate (kₐ) and off-rate (kd) constants were determined from the data using Scrubber software version 2.0 c. Binding dissociation equilibrium constants (KD) and dissociative half-lives (t 1/2) were calculated from the kinetic rate constants as: KD=kd/kₐ and t 1/2=ln(2)/kd.

mouse PROKR1 = mouse PROKR1 (mouse (Mus musculus), UniProt Q9JKL1 1-393); test: cell-based or functional assay
human PROKR2(1-53)-hFc [3] = target: T4, human PROKR2(1-53)-hFc (human); test: SPR (Biacore 4000), 25 C, antibody captured
T4 construct: also called soluble human PROKR2 (N-terminal portion)
Procedure: as §3

human PROKR2(1-53)-hFc [4] = target: T4, human PROKR2(1-53)-hFc; test: SPR (Biacore 4000), 25 C, antibody captured, antigen injected at 25 and 100 nM
Procedure: as §3

human PROKR2 [5] = target: T2, human PROKR2; test: flow cytometry, HEK293 cells expressing the target, 13 nM antibody
Procedure: as §1, §2

mouse PROKR2 = target: T5, mouse PROKR2 (mouse (Mus musculus), UniProt Q8K458 1-381); test: as above
T5 construct: whole, on cells; Expressed on engineered HEK293 or CHO cells; also called mPROKR2; CHO/mPROKR2
Procedure: as §1, §2

cynomolgus monkey PROKR1 = cynomolgus monkey PROKR1 (cynomolgus monkey (Macaca fascicularis), UniProt G7PMD0 1-393); test: cell-based or functional assay
human PROKR1 [6] = target: T1, human PROKR1; test: cell-based or functional assay; remark: listed apart in the source
rat PROKR1 = rat PROKR1 (rat (Rattus norvegicus), UniProt Q8R416 1-393); test: cell-based or functional assay
rat PROKR1, sequence (Q8R416 whole entry): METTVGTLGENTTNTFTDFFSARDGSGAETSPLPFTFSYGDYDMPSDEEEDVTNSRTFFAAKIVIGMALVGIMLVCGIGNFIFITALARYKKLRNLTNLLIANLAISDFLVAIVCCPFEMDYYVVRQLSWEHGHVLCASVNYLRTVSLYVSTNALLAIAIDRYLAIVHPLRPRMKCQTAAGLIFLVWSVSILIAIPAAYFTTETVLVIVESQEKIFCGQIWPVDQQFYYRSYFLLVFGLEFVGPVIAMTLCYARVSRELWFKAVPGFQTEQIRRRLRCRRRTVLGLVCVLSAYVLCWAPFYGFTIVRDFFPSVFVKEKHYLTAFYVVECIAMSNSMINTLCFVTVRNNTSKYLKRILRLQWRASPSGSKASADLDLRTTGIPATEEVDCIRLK

cynomolgus monkey PROKR1, sequence (G7PMD0 entry or part of it): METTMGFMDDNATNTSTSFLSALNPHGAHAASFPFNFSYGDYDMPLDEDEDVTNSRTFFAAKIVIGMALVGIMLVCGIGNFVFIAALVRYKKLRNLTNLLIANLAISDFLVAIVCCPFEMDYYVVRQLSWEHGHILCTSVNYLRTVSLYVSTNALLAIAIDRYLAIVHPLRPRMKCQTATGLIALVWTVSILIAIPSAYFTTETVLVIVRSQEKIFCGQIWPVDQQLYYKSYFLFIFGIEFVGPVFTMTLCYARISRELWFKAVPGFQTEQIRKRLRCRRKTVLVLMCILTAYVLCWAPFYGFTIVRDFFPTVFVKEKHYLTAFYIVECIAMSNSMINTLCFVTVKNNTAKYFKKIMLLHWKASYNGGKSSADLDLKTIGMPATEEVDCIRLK
mouse PROKR1, sequence (Q9JKL1 whole entry): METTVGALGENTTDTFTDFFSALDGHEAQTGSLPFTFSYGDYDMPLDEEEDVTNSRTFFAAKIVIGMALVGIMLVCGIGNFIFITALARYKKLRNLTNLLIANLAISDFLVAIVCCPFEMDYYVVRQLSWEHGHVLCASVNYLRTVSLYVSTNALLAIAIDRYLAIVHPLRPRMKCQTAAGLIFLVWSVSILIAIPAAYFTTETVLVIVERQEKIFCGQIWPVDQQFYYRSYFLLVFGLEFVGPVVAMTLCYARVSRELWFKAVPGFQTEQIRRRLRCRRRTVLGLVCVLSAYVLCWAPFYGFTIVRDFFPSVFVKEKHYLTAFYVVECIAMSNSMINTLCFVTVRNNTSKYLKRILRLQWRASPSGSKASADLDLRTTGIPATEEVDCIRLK
T3 sequence (chain, as listed by the source limits assumed): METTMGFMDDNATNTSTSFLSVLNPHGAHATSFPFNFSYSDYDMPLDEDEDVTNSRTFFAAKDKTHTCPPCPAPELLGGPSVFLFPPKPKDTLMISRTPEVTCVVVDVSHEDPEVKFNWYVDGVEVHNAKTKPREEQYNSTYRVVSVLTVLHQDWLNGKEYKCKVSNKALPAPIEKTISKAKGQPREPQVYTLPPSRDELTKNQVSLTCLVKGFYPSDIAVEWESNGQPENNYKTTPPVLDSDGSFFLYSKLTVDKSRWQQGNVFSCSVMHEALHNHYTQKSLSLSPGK
T2 sequence (Q8NFJ6 whole entry): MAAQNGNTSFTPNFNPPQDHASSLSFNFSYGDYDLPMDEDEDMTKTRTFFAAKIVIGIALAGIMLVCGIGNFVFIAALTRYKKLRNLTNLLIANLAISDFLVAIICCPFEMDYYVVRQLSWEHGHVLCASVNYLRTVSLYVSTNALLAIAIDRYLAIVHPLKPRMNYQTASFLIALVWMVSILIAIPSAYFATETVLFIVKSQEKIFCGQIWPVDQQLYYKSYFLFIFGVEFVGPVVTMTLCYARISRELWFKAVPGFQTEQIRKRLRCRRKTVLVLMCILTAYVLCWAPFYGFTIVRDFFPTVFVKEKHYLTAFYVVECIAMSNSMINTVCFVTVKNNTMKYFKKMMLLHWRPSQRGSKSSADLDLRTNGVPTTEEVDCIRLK
T1 sequence (Q8TCW9 whole entry): as the sequence (G7PMD0 entry or part of it) above, with A22V, A31T, G40S, V82I, I135V, R210K, F246V, N348D, A350V counted along it
T5 sequence (Q8K458 whole entry): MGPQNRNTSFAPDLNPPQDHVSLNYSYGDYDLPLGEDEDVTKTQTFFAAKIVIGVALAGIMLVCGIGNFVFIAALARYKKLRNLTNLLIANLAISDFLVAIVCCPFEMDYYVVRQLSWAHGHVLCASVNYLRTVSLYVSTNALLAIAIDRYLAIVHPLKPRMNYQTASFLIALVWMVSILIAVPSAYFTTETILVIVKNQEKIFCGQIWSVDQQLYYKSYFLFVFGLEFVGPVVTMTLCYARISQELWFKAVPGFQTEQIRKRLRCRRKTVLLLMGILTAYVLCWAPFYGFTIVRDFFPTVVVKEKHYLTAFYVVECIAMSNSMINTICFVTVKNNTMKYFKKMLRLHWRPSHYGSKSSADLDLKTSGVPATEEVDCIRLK

| Binder | Block (%), calcium flux, hPROKR1 + PK1 (20 nM hPK1) (human PROKR1 [1]) [%] | IC50 (nM), inhibition of calcium flux, hPROKR1 + PK1 (20 nM hPK1) (human PROKR1 [1]) [nM] | binding result (human PROKR2 [2]) | Kd (human PROKR1 (1-62)-hFc) [nM] | koff (human PROKR1 (1-62)-hFc) [s⁻¹] | kon (human PROKR1 (1-62)-hFc) [M⁻¹ s⁻¹] | t½ (human PROKR1 (1-62)-hFc) [min] | Block (%), calcium flux, mPROKR1 + PK1 (1 nM hPK1) (mouse PROKR1) [%] | binding result (human PROKR2(1-53)-hFc [3]) | Kd (human PROKR2(1-53)-hFc [4]) [nM] | koff (human PROKR2(1-53)-hFc [4]) [s⁻¹] | kon (human PROKR2(1-53)-hFc [4]) [M⁻¹ s⁻¹] | t½ (human PROKR2(1-53)-hFc [4]) [min] | binding result (human PROKR2 [5]) | binding result (mouse PROKR2) | Block (%), calcium flux, MfPROKR1 + PK1 (5 nM hPK1) (cynomolgus monkey PROKR1) [%] | Block (%), calcium flux, MfPROKR1 + PK2 (0.5 nM hPK2) (cynomolgus monkey PROKR1) [%] | IC50 (nM), inhibition of calcium flux, MfPROKR1 + PK1 (5 nM hPK1) (cynomolgus monkey PROKR1) [nM] | IC50 (nM), inhibition of calcium flux, MfPROKR1 + PK2 (0.5 nM hPK2) (cynomolgus monkey PROKR1) [nM] | Block (%), calcium flux, hPROKR1 + PK1 (1 nM hPK1) (human PROKR1 [1]) [%] | further results |
| --- | --- | --- | --- | --- | --- | --- | --- | --- | --- | --- | --- | --- | --- | --- | --- | --- | --- | --- | --- | --- | --- |
| B1 | 45 | 14.5 | no binding | 1.83 | 0.000362 | 198000 | 32 | 0 | no binding (tested: 25 and 100 nM antigen injected) | – | – | – | – | – | – | – | – | – | – | – | – |
| B2 | 52.4 | 14 | no binding | 0.264 | 6.23e-05 | 236000 | 186 | 0 | no binding (tested: 25 and 100 nM antigen injected) | – | – | – | – | – | – | – | – | – | – | – | – |
| B3 | 51 | 16.4 | – | 0.197 | 4.55e-05 | 231000 | 254 | 0 | – | 4.23 | 0.000253 | 59900 | 46 | – | – | – | – | – | – | – | – |
| B4 | – | – | – | 1.12 | 0.000287 | 255000 | 40 | 0 | – | 16.1 | 0.00857 | 533000 | 1 | binds | binds | 99.3 | 85.7 | 32.9 | 63.9 | 101 | Block (%), calcium flux, hPROKR1 + PK2 (1 nM hPK2) (human PROKR1 [1]): 40%; IC50 (nM), inhibition of calcium flux, hPROKR1 + PK1 (1 nM hPK1) (human PROKR1 [1]): 8.5 nM; IC50 (nM), inhibition of calcium flux, hPROKR1 + PK2 (1 nM hPK2) (human PROKR1 [1]): > 300 nM; IC50 (nM), blocking of hPK1 induced calcium flux, CHO/hPROKR1 non-induced (40 nM hPK1) (human PROKR1 [6]): 3.1 nM; IC50 (nM), blocking of hPK2 induced calcium flux, CHO/hPROKR1 non-induced (4 nM hPK2) (human PROKR1 [6]): 27.4 nM; Block (%), calcium flux, rPROKR1 + PK1 (1 nM hPK1) (rat PROKR1): 0% |
| B5 | – | – | – | 1.07 | 0.000412 | 385000 | 28 | 20.9 | – | 2.41 | 0.00215 | 891000 | 5 | binds | binds | 101 | 50.5 | 6.4 | > 300 | 98.5 | Block (%), calcium flux, hPROKR1 + PK2 (1 nM hPK2) (human PROKR1 [1]): 56.6%; IC50 (nM), inhibition of calcium flux, hPROKR1 + PK1 (1 nM hPK1) (human PROKR1 [1]): 6.6 nM; IC50 (nM), inhibition of calcium flux, hPROKR1 + PK2 (1 nM hPK2) (human PROKR1 [1]): > 300 nM; IC50 (nM), blocking of hPK1 induced calcium flux, CHO/hPROKR1 non-induced (40 nM hPK1) (human PROKR1 [6]): 4.1 nM; IC50 (nM), blocking of hPK2 induced calcium flux, CHO/hPROKR1 non-induced (4 nM hPK2) (human PROKR1 [6]): 21.9 nM; Block (%), calcium flux, rPROKR1 + PK1 (1 nM hPK1) (rat PROKR1): 0%; IC50 (nM), inhibition of calcium flux, mPROKR1 + PK1 (1 nM hPK1) (mouse PROKR1): > 300 nM |
